Assay results published in patent US20090227507A1, “Angiotensin (1-7) Dosage Forms and Uses Thereof” (UNIVERSITY OF SOUTHERN CALIFORNIA, priority 2008, published 2009).

Assay: Hematology profile (CBC with differential, platelet count) in healthy men;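 for Platelet Count, Median Change from Baseline: Thousands of platelets per mm³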;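 for Platelet Count, Median: Thousands of platelets per mm³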
Type: in vivo, human
Conditions: for number of various white blood cell types in peripheral blood above baseline levels: human administration
Description: Pharmacological Effect: The following evaluations (under efficacy and safety in the protocol) were performed: • Effects on the number of mature blood cells: • 1. CBC (with differential), platelet count, reticulocyte count. • Effects on early hematopoietic progenitor cells and mature lymphocyte subsets in the periphery: • 1. Flow cytometry to evaluate frequency of peripheral blood progenitor cells (eg, CD34^+) and lymphocyte subsets (eg, CD3, CD4, CD8) in peripheral blood. • 2. Collection of blood for later possible culture for progenitor cells (eg, colony forming units-granulocyte/macrophage [CFU-GM]) to evaluate potential effects on CD34^+ hematopoietic progenitor cells in peripheral blood. • 3.
The effect of USB003 on the number of mature blood cells was assessed by the complete blood count with differential, platelet and reticulocyte counts. The effects on early hematopoietic progenitor cells and mature lymphocyte subsets in the periphery were assessed by flow cytometry. In addition, blood was collected and processed to enable culture of progenitors at a later time.
Red blood cell (RBC) count, RBC indices, white blood cell count (WBC) with differential, reticulocyte count, platelet count, hemoglobin (Hb), hematocrit (Hct), plasma hemoglobin, peripheral flow cytometry, including CD34^+, flow cytometry for enumeration of CD3, CD4, and CD8 lymphocytes, and culture for progenitor cells in peripheral blood including colony-forming units-granulocyte/macrophage (CFU-GM).

[1] = 300 μg/kg, N = 8, baseline to Day 8
[2] = 300 μg/kg, N = 8, baseline to Day 20
[3] = 300 μg/kg, Study Termination Visit Day 19
[4] = 300 μg/kg, repeat test 10 days later
[5] = Subject 042, 300 μg/kg, Day 29 U (unscheduled)

With Asp-Arg-Val-Tyr-Ile-His-Pro [USB003] the “Eosinophils shift L-N, number of subjects” value [1] was “— (“—” = 0)”, the “Eosinophils shift N-H, number of subjects” value [1] was “— (“—” = 0)” and the “Eosinophils shift N-L, number of subjects” value [1] was “— (“—” = 0)”. The “Hematocrit shift H-N, number of subjects” value [1] was “— (“—” = 0)”, the “Hematocrit shift L-N, number of subjects” value [1] was “— (“—” = 0)” and the “Hematocrit shift N-H, number of subjects” value [1] was “— (“—” = 0)”. The “Hematocrit shift N-L, number of subjects” value [1] was 2, the “Hemoglobin shift H-N, number of subjects” value [1] was “— (“—” = 0)” and the “Hemoglobin shift L-N, number of subjects” value [1] was “— (“—” = 0)”. For the same substance, the “Hemoglobin shift N-H, number of subjects” value [1] was “— (“—” = 0)”, the “Hemoglobin shift N-L, number of subjects” value [1] was 2 and the “Lymphocytes shift H-N, number of subjects” value [1] was “— (“—” = 0)”. For the same substance, the “Lymphocytes shift L-N, number of subjects” value [1] was “— (“—” = 0)”, the “Lymphocytes shift N-H, number of subjects” value [1] was “— (“—” = 0)” and the “Lymphocytes shift N-L, number of subjects” value [1] was “— (“—” = 0)”. The “Plasma Hemoglobin shift H-N, number of subjects” value [1] was “— (“—” = 0)”, the “Plasma Hemoglobin shift L-N, number of subjects” value [1] was “— (“—” = 0)” and the “Plasma Hemoglobin shift N-H, number of subjects” value [1] was “— (“—” = 0)”. The “Plasma Hemoglobin shift N-L, number of subjects” value [1] was “— (“—” = 0)”, the “Platelet Count shift H-N, number of subjects” value [1] was “— (“—” = 0)” and the “Platelet Count shift L-N, number of subjects” value [1] was 1. For the same substance, the “Platelet Count shift N-H, number of subjects” value [1] was “— (“—” = 0)”, the “Platelet Count shift N-L, number of subjects” value [1] was “— (“—” = 0)” and the “RBC shift H-N, number of subjects” value [1] was “— (“—” = 0)”. The “RBC shift L-N, number of subjects” value [1] was “— (“—” = 0)”, the “RBC shift N-H, number of subjects” value [1] was “— (“—” = 0)” and the “RBC shift N-L, number of subjects” value [1] was 1. The “Segmented Neutrophils shift H-N, number of subjects” value [1] was “— (“—” = 0)”, the “Segmented Neutrophils shift L-N, number of subjects” value [1] was “— (“—” = 0)” and the “Segmented Neutrophils shift N-H, number of subjects” value [1] was “— (“—” = 0)”. The “Segmented Neutrophils shift N-L, number of subjects” value [1] was “— (“—” = 0)”, the “Absolute Eosinophils shift H-N, number of subjects” value [2] was “— (“—” = 0)” and the “Absolute Eosinophils shift L-N, number of subjects” value [2] was “— (“—” = 0)”. For the same substance, the “Absolute Eosinophils shift N-H, number of subjects” value [2] was “— (“—” = 0)”, the “Absolute Eosinophils shift N-L, number of subjects” value [2] was “— (“—” = 0)” and the “Absolute Neutrophils shift H-N, number of subjects” value [2] was “— (“—” = 0)”. The “Absolute Neutrophils shift L-N, number of subjects” value [2] was “— (“—” = 0)”, the “Absolute Neutrophils shift N-H, number of subjects” value [2] was 1 and the “Absolute Neutrophils shift N-L, number of subjects” value [2] was “— (“—” = 0)”. For the same substance, the “Absolute Reticulocytes shift H-N, number of subjects” value [2] was “— (“—” = 0)”, the “Absolute Reticulocytes shift L-N, number of subjects” value [2] was “— (“—” = 0)” and the “Absolute Reticulocytes shift N-H, number of subjects” value [2] was “— (“—” = 0)”. The “Absolute Reticulocytes shift N-L, number of subjects” value [2] was “— (“—” = 0)”, the “Eosinophils shift H-N, number of subjects” value [2] was 1 and the “Eosinophils shift L-N, number of subjects” value [2] was “— (“—” = 0)”. The “Eosinophils shift N-H, number of subjects” value [2] was 2, the “Eosinophils shift N-L, number of subjects” value [2] was “— (“—” = 0)” and the “Hematocrit shift H-N, number of subjects” value [2] was “— (“—” = 0)”. For the same substance, the “Hematocrit shift L-N, number of subjects” value [2] was “— (“—” = 0)”, the “Hematocrit shift N-H, number of subjects” value [2] was “— (“—” = 0)” and the “Hematocrit shift N-L, number of subjects” value [2] was 4. The “Hemoglobin shift H-N, number of subjects” value [2] was “— (“—” = 0)”, the “Hemoglobin shift L-N, number of subjects” value [2] was “— (“—” = 0)” and the “Hemoglobin shift N-H, number of subjects” value [2] was “— (“—” = 0)”. For the same substance, the “Hemoglobin shift N-L, number of subjects” value [2] was 3, the “Lymphocytes shift H-N, number of subjects” value [2] was 1 and the “Lymphocytes shift L-N, number of subjects” value [2] was “— (“—” = 0)”. The “Lymphocytes shift N-H, number of subjects” value [2] was “— (“—” = 0)”, the “Lymphocytes shift N-L, number of subjects” value [2] was “— (“—” = 0)” and the “Monocytes shift H-N, number of subjects” value [2] was “— (“—” = 0)”. For the same substance, the “Monocytes shift L-N, number of subjects” value [2] was “— (“—” = 0)”, the “Monocytes shift N-H, number of subjects” value [2] was “— (“—” = 0)” and the “Monocytes shift N-L, number of subjects” value [2] was “— (“—” = 0)”. The “Plasma Hemoglobin shift H-N, number of subjects” value [2] was “— (“—” = 0)”, the “Plasma Hemoglobin shift L-N, number of subjects” value [2] was “— (“—” = 0)” and the “Plasma Hemoglobin shift N-H, number of subjects” value [2] was 1. The “Plasma Hemoglobin shift N-L, number of subjects” value [2] was “— (“—” = 0)”, the “Platelet Count shift H-N, number of subjects” value [2] was “— (“—” = 0)” and the “Platelet Count shift L-N, number of subjects” value [2] was 1. For the same substance, the “Platelet Count shift N-H, number of subjects” value [2] was “— (“—” = 0)”, the “Platelet Count shift N-L, number of subjects” value [2] was “— (“—” = 0)” and the “RBC shift H-N, number of subjects” value [2] was “— (“—” = 0)”. For the same substance, the “RBC shift L-N, number of subjects” value [2] was “— (“—” = 0)”, the “RBC shift N-H, number of subjects” value [2] was “— (“—” = 0)” and the “RBC shift N-L, number of subjects” value [2] was 2. For the same substance, the “RDW shift H-N, number of subjects” value [2] was “— (“—” = 0)”, the “RDW shift L-N, number of subjects” value [2] was “— (“—” = 0)” and the “RDW shift N-H, number of subjects” value [2] was “— (“—” = 0)”. For the same substance, the “RDW shift N-L, number of subjects” value [2] was “— (“—” = 0)”, the “Segmented Neutrophils shift H-N, number of subjects” value [2] was “— (“—” = 0)” and the “Segmented Neutrophils shift L-N, number of subjects” value [2] was “— (“—” = 0)”. For the same substance, the “Segmented Neutrophils shift N-H, number of subjects” value [2] was 2, the “Segmented Neutrophils shift N-L, number of subjects” value [2] was “— (“—” = 0)” and the “WBC shift H-N, number of subjects” value [2] was “— (“—” = 0)”. For the same substance, the “WBC shift L-N, number of subjects” value [2] was “— (“—” = 0)”, the “WBC shift N-H, number of subjects” value [2] was 1 and the “WBC shift N-L, number of subjects” value [2] was “— (“—” = 0)”. For the same substance, the “Absolute Neutrophils, Median” value (300 μg/kg, Baseline) was 2.85 thousands/mm^3, the “Hematocrit, Median” value (300 μg/kg, Baseline) was 45.25% and the “Hemoglobin, Median” value (300 μg/kg, Baseline) was 15.60 g/dL. For the same substance, the “Lymphocytes, Median” value (300 μg/kg, Baseline) was 33.60%, the “Platelet Count, Median” value (300 μg/kg, Baseline) was 216.0 thousands/mm^3 and the “WBC, Median” value (300 μg/kg, Baseline) was 5.15 thousands/mm^3. For the same substance, the “Absolute Neutrophils, Median” value (300 μg/kg, Day 8) was 2.95 thousands/mm^3, the “Absolute Neutrophils, Median Change from Baseline” value (300 μg/kg, Day 8) was −0.10 thousands/mm^3 and the “Hematocrit, Median” value (300 μg/kg, Day 8) was 42.30%. For the same substance, the “Hematocrit, Median Change from Baseline” value (300 μg/kg, Day 8) was −2.10%, the “Hemoglobin, Median” value (300 μg/kg, Day 8) was 14.40 g/dL and the “Hemoglobin, Median Change from Baseline” value (300 μg/kg, Day 8) was -1.15 g/dL. The “Lymphocytes, Median” value (300 μg/kg, Day 8) was 34.50%, the “Lymphocytes, Median Change from Baseline” value (300 μg/kg, Day 8) was 1.00% and the “Platelet Count, Median” value (300 μg/kg, Day 8) was 243.0 thousands/mm^3. The “Platelet Count, Median Change from Baseline” value (300 μg/kg, Day 8) was 22.5 thousands/mm^3, the “WBC, Median” value (300 μg/kg, Day 8) was 5.65 thousands/mm^3 and the “WBC, Median Change from Baseline” value (300 μg/kg, Day 8) was −0.30 thousands/mm^3. The “Absolute Neutrophils, Median” value (300 μg/kg, Day 20) was 3.80 thousands/mm^3, the “Absolute Neutrophils, Median Change from Baseline” value (300 μg/kg, Day 20) was 0.75 thousands/mm^3 and the “Hematocrit, Median” value (300 μg/kg, Day 20) was 40.45%. For the same substance, the “Hematocrit, Median Change from Baseline” value (300 μg/kg, Day 20) was −3.45%, the “Hemoglobin, Median” value (300 μg/kg, Day 20) was 14.0 g/dL and the “Hemoglobin, Median Change from Baseline” value (300 μg/kg, Day 20) was -1.30 g/dL. For the same substance, the “Lymphocytes, Median” value (300 μg/kg, Day 20) was 29.75%, the “Lymphocytes, Median Change from Baseline” value (300 μg/kg, Day 20) was −3.90% and the “Platelet Count, Median” value (300 μg/kg, Day 20) was 243.5 thousands/mm^3. For the same substance, the “Platelet Count, Median Change from Baseline” value (300 μg/kg, Day 20) was 14 thousands/mm^3, the “WBC, Median” value (300 μg/kg, Day 20) was 6.55 thousands/mm^3 and the “WBC, Median Change from Baseline” value (300 μg/kg, Day 20) was 1.30 thousands/mm^3. For the same substance, the “WBC value, Subject 042” value [3] was 13,400 cells/mm^3, the “segmented neutrophils, Subject 042” value [3] was 84.9% and the “WBC count, Subject 042” value [4] was 8,900 cells/mm^3. The “segmented neutrophils, Subject 042” value [4] was 73.5%, the “total WBC and neutrophil concentrations” value (200 and 300 μg/kg SC) was “increases” and the “WBC Significance” value (Subject 027, 200 μg/kg, Day 11) was “CS AE”. For the same substance, the WBC Value (Subject 027, 200 μg/kg, Day 11) was 12.7 10^3/mm³, the “WBC High/Low Normal/Abnormal” value (Subject 027, 200 μg/kg, Day 14) was “N” and the WBC Value (Subject 027, 200 μg/kg, Day 14) was 7.3 10^3/mm³. The “Segmented Neutrophils Significance” value (Subject 042, 300 μg/kg, Day 19) was “CS AE”, the Segmented Neutrophils Value (Subject 042, 300 μg/kg, Day 19) was 84.9% and the “WBC Significance” value (Subject 042, 300 μg/kg, Day 19) was “CS AE”. For the same substance, the WBC Value (Subject 042, 300 μg/kg, Day 19) was 13.4 10^3/mm³, the “Segmented Neutrophils Significance” value [5] was “NCS” and the Segmented Neutrophils Value [5] was 73.5%. The “WBC High/Low Normal/Abnormal” value [5] was “N”, the WBC Value [5] was 8.9 10^3/mm³ and the “peripheral blood concentrations of WBC, neutrophils, CD3, CD34+, CD4 and CD8” value (during the administration of USB003) was “elevations”. For the same substance, the “time for all hematological parameters to return to baseline” value (following discontinuation of USB003 administration) was at most 12 days, the “number of various white blood cell types in peripheral blood above baseline levels” value (doses of 300 μg/kg or more) was “increasing the number of various white blood cell types” and the “number of various white blood cell types in peripheral blood above baseline levels” value (lower doses (200 μg/kg)) was “did not provide such an increase over baseline”.
